The values that follow come from paper PMC6178561.

Where two headings read alike, the source gives them in different places.

Assay [1] concerns the target HA-InR^intra (intracellular domain of insulin receptor including the kinase domain) (Drosophila) (UniProt P09208). Kind of assay: proximity ligation.
Assay [2] has the same target. Kind of assay: proximity ligation. This is another data set of the same source.

Chain of UniProt P09208 (P09208 1086-2144): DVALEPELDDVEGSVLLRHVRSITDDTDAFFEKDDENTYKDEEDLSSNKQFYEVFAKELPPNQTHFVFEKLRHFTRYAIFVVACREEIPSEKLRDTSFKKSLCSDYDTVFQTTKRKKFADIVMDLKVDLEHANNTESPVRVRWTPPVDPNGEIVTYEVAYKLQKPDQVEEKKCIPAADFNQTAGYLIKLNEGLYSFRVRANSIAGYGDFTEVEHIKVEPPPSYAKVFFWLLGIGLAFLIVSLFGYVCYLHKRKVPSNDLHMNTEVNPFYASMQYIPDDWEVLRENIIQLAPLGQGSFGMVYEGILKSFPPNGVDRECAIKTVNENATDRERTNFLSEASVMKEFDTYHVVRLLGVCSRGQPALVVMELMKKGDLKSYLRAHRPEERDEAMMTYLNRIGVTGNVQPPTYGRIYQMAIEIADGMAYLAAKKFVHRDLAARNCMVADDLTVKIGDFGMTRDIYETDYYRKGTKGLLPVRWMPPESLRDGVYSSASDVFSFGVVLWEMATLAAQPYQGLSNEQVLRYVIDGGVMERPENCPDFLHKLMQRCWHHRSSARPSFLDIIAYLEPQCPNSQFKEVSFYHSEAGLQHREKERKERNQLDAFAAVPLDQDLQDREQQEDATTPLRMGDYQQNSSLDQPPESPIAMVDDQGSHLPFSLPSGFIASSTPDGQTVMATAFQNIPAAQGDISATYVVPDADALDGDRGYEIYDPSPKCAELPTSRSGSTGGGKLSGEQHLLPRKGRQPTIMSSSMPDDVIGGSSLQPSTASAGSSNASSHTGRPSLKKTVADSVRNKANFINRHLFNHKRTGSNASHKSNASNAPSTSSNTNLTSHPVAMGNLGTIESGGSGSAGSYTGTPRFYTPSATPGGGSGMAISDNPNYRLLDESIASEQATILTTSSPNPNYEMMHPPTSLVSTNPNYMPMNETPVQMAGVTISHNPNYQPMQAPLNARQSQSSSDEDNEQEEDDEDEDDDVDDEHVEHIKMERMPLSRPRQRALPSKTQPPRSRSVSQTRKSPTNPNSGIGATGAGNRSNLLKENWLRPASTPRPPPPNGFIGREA

In assay [1], “Myc-Hsp83 (heat shock protein 83) (from UniProt P02828 1-717) (natural protein)” gave a PLA foci per cell (average) (PLA foci per cell) of 12.8, a percent of cells with PLA signal of 90.9%, a percent of cells with moderate PLA signals (11-30 foci) of 41.8% and a percent of cells with strong PLA signals (>30 foci) of 12.7%. Besides, in assay [1], the percent of cells with weak PLA signals (≤10 foci) came to 36.4%.

B1: Myc-Cdc37 (cell division cycle 37) (natural protein)
chain: MVDYSKWKNIEISDDEDDTHPNIDTPSLFRWRHQARVERMAEMDHEKDELKKKRQSYQARLMDVKERISKKDGDEEALKKELEKIEAEGKELDRIESEMIKKEKKTPWNVDTISKPGFEKTVINKKAGRKPDENLSEEEREQRMKQFVKENEKLCQQYGMLRKYDDSKRFLQEHLHLVGEETANYLVIWSINLEMEEKHELMAHVAHQCICMQYILELAKQLDVDPRACVSSFFSKIQHCHPEYRAQFDSEIEGFKGRIQKRAQEKIQEAIAQAEEEERKERLGPGGLDPADVFESLPDELKACFESRDVELLQKTIAAMPVDVAKLHMKRCVDSGLWVPNAADLEGDKKEEDDSDDVAGGEEKTDDAKSESAAKEEPIYTGVSTEDVD
In assay [2], B1 registered a percent of cells with PLA signal of 86.8%, a percent of cells with moderate PLA signals of 31.4%, a percent of cells with strong PLA signals of 4.1% and a percent of cells with weak PLA signals of 51.3%.
